Reference: patent US20230151111A1 (AKESO BIOPHARMA, published 2023)

T1: CD73 on cell membrane surface (MDA-MB-231, U87-MG) (human, UniProt P21589 27-549)
T1 construct: whole, on cells; also called NT5E
T1 sequence (looked up): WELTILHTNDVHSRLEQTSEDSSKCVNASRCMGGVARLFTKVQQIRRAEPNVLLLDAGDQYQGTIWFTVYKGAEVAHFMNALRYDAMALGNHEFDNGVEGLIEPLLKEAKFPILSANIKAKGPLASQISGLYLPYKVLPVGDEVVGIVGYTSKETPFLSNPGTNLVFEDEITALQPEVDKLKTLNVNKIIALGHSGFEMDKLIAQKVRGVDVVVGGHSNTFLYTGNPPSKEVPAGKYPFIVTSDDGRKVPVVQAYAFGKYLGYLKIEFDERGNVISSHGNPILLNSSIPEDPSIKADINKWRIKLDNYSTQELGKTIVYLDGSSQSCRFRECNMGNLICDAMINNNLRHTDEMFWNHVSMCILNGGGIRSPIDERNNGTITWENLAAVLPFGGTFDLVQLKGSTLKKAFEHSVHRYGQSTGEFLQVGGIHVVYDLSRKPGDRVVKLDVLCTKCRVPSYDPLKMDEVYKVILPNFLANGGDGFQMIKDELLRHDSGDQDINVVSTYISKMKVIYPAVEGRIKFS

T2: human NT5E-Biotin (human, UniProt P21589 27-552, limits assumed, biotin label, site not stated)
T2 construct: Captured on streptavidin-coated plates; also called human NTSE-Biotin
T2 sequence (looked up): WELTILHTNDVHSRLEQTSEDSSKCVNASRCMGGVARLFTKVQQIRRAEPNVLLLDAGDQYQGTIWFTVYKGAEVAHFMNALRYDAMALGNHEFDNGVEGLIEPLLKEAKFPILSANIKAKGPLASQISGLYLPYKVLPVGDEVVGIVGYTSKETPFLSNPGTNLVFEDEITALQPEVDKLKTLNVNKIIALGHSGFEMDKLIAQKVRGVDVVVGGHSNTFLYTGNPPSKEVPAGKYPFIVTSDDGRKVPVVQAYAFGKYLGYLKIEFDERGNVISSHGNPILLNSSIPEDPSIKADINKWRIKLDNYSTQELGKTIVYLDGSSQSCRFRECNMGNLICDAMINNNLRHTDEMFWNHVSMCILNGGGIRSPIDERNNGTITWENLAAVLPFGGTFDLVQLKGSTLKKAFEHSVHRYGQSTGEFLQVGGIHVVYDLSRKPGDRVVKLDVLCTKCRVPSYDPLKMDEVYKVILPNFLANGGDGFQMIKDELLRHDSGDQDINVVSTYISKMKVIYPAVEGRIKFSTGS


How the values were obtained:
[1] = target: T3, PD-1 on 293T-PD1 cell surface (human, UniProt Q15116 25-288); experiment: flow cytometry, 293T-PD1 cells; antibody 11.11 nM
T3 construct: whole, on cells
T3 sequence (Q15116 25-288): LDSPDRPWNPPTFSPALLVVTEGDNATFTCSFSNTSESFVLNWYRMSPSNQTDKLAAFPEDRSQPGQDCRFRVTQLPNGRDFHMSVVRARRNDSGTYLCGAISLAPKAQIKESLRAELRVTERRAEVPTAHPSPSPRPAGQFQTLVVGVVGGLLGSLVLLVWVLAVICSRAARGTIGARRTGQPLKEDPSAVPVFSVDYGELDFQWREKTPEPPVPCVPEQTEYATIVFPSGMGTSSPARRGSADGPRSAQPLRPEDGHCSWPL
Protocol: (§1) 500 μL of PBSA was added, and the mixture was centrifuged at 5600 rpm for 5 min to remove the supernatant. […] The system was mixed gently and uniformly, and then was incubated on ice for 1 h. Then 500 μL of PBSA was added, and the mixture was centrifuged at 5600 rpm for 5 min to remove the supernatant. […] 500 μL of PBSA was added, and the mixture was centrifuged at 5600 rpm for 5 min to remove the supernatant. At last, 200 μL of PBSA was added to resuspend cell precipitates, and the mixture was transferred to a flow tube for FACSCalibur detection.

[2] = target: T1, CD73 on cell membrane surface …; experiment: flow cytometry, MDA-MB-231 cells; antibody 0.14 nM
Protocol: (§2) MDA-MB-231 cells in logarithmic phase were digested with conventional trypsin and transferred to a 1.5 mL centrifuge tube at 3×10⁵ cells/tube. 500 μL of PBSA was added, and the mixture was centrifuged at 5600 rpm for 5 min to remove the supernatant. […] The system was mixed gently and uniformly, and then was incubated on ice for 1 h. Then 500 μL of PBSA was added, and the mixture was centrifuged at 5600 rpm for 5 min to remove the supernatant. […] 500 μL of PBSA was added, and the mixture was centrifuged at 5600 rpm for 5 min to remove the supernatant. At last, 200 μL of PBSA was added to resuspend cell precipitates, and the mixture was transferred to a flow tube for FACSCalibur detection.

[3] = target: T3, PD-1 on 293T-PD1 cell surface; experiment: flow cytometry, 293T-PD1 cells; antibody 1.23 nM
Protocol: as §1

[4] = target: T1, CD73 on cell membrane surface …; experiment: flow cytometry, MDA-MB-231 cells; antibody 1.23 nM
Protocol: as §2

[5] = target: T3, PD-1 on 293T-PD1 cell surface; experiment: flow cytometry, 293T-PD1 cells; antibody 0.41 nM
Protocol: as §1

[6] = target: T1, CD73 on cell membrane surface …; experiment: flow cytometry, MDA-MB-231 cells; antibody 33.33 nM
Protocol: as §2

[7] = target: T1, CD73 on cell membrane surface …; experiment: flow cytometry, MDA-MB-231 cells; antibody 3.70 nM
Protocol: as §2

human NT5E-Biotin = target: T2, human NT5E-Biotin; experiment: ELISA, NT5E-biotin on streptavidin
Protocol: A microplate was coated with streptavidin at 2 μg/mL and then incubated at 4° C. overnight. After incubation, the microplate coated with streptavidin was washed once with PBST, and blocked with a PBS solution containing 1% BSA as a microplate blocking solution at 37° C. for 2 h. After blocking, the microplate was washed 3 times with PBST. Then, 0.5 μg/mL antigen human NTSE-Biotin was added and incubated at 37° C. for 30 min. Then, the plate was washed 3 times with PBST. The antibodies serially diluted with PBST solution (the dilution gradients for the antibody are shown in Table 3) were added to wells of the microplate. The microplate containing the test antibodies was incubated at 37° C. for 30 min, and then washed 3 times with PBST. […] After incubation, the plate was washed 4 times with PBST, TMB (Neogen, 308177) was added in the dark for chromogenesis for 5 min, and then a stop solution was added to terminate chromogenic reaction. The microplate was put into a microplate reader immediately, and the OD value of each well in the microplate was read at 450 nm. The data were analyzed and processed by SoftMax Pro 6.2.1.

[8] = target: T1, CD73 on cell membrane surface …; experiment: flow cytometry, MDA-MB-231 cells; antibody 11.11 nM
Protocol: as §2

Row | FACS signal [1] | FACS signal [2] | FACS signal [3] | FACS signal [4] | FACS signal [5] | FACS signal [6] | FACS signal [7] | EC50 (human NT5E-Biotin) [nM] | FACS signal [8] | Binder
1 | 578 | 38 | 307 | 272 | 151 | 526 | 572 | 0.063 | 561 | P1D7V01 (bispecific antibody, human IgG1, kappa, Morrison form IgG-scFv) heavy: not shown light: DIQMTQSPSSMSASVGDRVTFTCRASQDINTYLSWFQQKPGKSPKTLIYRANRLVSGVPSRFSGSGSGQDYTLTISSLQPEDMATYYCLQYDEFPLTFGAGTKLELKRTVAAPSVFIFPPSDEQLKSGTASVVCLLNNFYPREAKVQWKVDNALQSGNSQESVTEQDSKDSTYSLSSTLTLSKADYEKHKVYACEVTHQGLSSPVTKSFNRGEC
2 | 459 | 44 | 289 | 233 | 118 | 576 | 458 | 0.068 | 525 | P1D7V03 (bispecific antibody, human IgG1, kappa, Morrison form IgG-scFv) heavy: not shown light: DIQMTQSPSSMSASVGDRVTFTCRASQDINTYLSWFQQKPGKSPKTLIYRANRLVSGVPSRFSGSGSGQDYTLTISSLQPEDMATYYCLQYDEFPLTFGAGTKLELKRTVAAPSVFIFPPSDEQLKSGTASVVCLLNNFYPREAKVQWKVDNALQSGNSQESVTEQDSKDSTYSLSSTLTLSKADYEKHKVYACEVTHQGLSSPVTKSFNRGEC
